{"source": "IntAct's records for PubMed 26387864", "parents": {"B1": {"name": "Mitochondrial intermembrane space import and assembly protein 40 (Homo sapiens), Q8N4Q1 (parent)", "chain": "MSYCRQEGKDRIIFVTKEDHETPSSAELVADDPNDPYEEHGLILPNGNINWNCPCLGGMASGPCGEQFKSAFSCFHYSTEEIKGSDCVDQFRAMQECMQKYPDLYPQEDEDEEEEREKKPAEQAEETAPIEATATKEEEGSS"}, "B2": {"name": "Calcium uptake protein 1, mitochondrial (Homo sapiens), Q9BPX6 (parent)", "chain": "MFRLNSLSALAELAVGSRWYHGGSQPIQIRRRLMMVAFLGASAVTASTGLLWKRAHAESPPCVDNLKSDIGDKGKNKDEGDVCNHEKKTADLAPHPEEKKKKRSGFRDRKVMEYENRIRAYSTPDKIFRYFATLKVISEPGEAEVFMTPEDFVRSITPNEKQPEHLGLDQYIIKRFDGKKISQEREKFADEGSIFYTLGECGLISFSDYIFLTTVLSTPQRNFEIAFKMFDLNGDGEVDMEEFEQVQSIIRSQTSMGMRHRDRPTTGNTLKSGLCSALTTYFFGADLKGKLTIKNFLEFQRKLQHDVLKLEFERHDPVDGRITERQFGGMLLAYSGVQSKKLTAMQRQLKKHFKEGKGLTFQEVENFFTFLKNINDVDTALSFYHMAGASLDKVTMQQVARTVAKVELSDHVCDVVFALFDCDGNGELSNKEFVSIMKQRLMRGLEKPKDMGFTRLMQAMWKCAQETAWDFALPKQ", "partner": "B1 chain"}, "B3": {"name": "Calcium uptake protein 1, mitochondrial (Homo sapiens), Q9BPX6 (parent)", "chain": "B2 chain"}}}
{"variants_of": "B1", "conditions": "with micu1_human MICU1, Q9BPX6"}
{"variant": "MSYCRQEGKDRIIFVTKEDHETPSSAELVADDPNDPYEEHGLILPNGNINWNSPCLGGMASGPCGEQFKSAFSCFHYSTEEIKGSDCVDQFRAMQECMQKYPDLYPQEDEDEEEEREKKPAEQAEETAPIEATATKEEEGSS", "note": "[C53S]", "effect of a mutation on the interaction": "with no effect"}
{"variant": "MSYCRQEGKDRIIFVTKEDHETPSSAELVADDPNDPYEEHGLILPNGNINWNCPSLGGMASGPCGEQFKSAFSCFHYSTEEIKGSDCVDQFRAMQECMQKYPDLYPQEDEDEEEEREKKPAEQAEETAPIEATATKEEEGSS", "note": "[C55S]", "effect of a mutation on the interaction": "disrupting interaction strength"}
{"variant": "MSYSRQEGKDRIIFVTKEDHETPSSAELVADDPNDPYEEHGLILPNGNINWNSPSLGGMASGPCGEQFKSAFSCFHYSTEEIKGSDCVDQFRAMQECMQKYPDLYPQEDEDEEEEREKKPAEQAEETAPIEATATKEEEGSS", "note": "[C4S;C53S;C55S]", "effect of a mutation on the interaction": "disrupting interaction strength"}
{"variants_of": "B2", "conditions": "with mia40_human CHCHD4, Q8N4Q1"}
{"variant": "MFRLNSLSALAELAVGSRWYHGGSQPIQIRRRLMMVAFLGASAVTASTGLLWKRAHAESPPCVDNLKSDIGDKGKNKDEGDVCNHEKKTADLAPHPEEKKKKRSGFRDRKVMEYENRIRAYSTPDKIFRYFATLKVISEPGEAEVFMTPEDFVRSITPNEKQPEHLGLDQYIIKRFDGKKISQEREKFADEGSIFYTLGECGLISFSDYIFLTTVLSTPQRNFEIAFKMFDLNGDGEVDMEEFEQVQSIIRSQTSMGMRHRDRPTTGNTLKSGLCSALTTYFFGADLKGKLTIKNFLEFQRKLQHDVLKLEFERHDPVDGRITERQFGGMLLAYSGVQSKKLTAMQRQLKKHFKEGKGLTFQEVENFFTFLKNINDVDTALSFYHMAGASLDKVTMQQVARTVAKVELSDHVCDVVFALFDCDGNGELSNKEFVSIMKQRLMRGLEKPKDMGFTRLMQAMWKAAQETAWDFALPKQ", "note": "[C463A]", "effect of a mutation on the interaction": "disrupting interaction strength"}
{"variants_of": "B3", "conditions": "with mcu_human MCU"}
{"variant": "MFRLNSLSALAELAVGSRWYHGGSQPIQIRRRLMMVAFLGASAVTASTGLLWKRAHAESPPCVDNLKSDIGDKGKNKDEGDVCNHEKKTADLAPHPEEKKKKRSGFRDRKVMEYENRIRAYSTPDKIFRYFATLKVISEPGEAEVFMTPEDFVRSITPNEKQPEHLGLDQYIIKRFDGKKISQEREKFADEGSIFYTLGECGLISFSDYIFLTTVLSTPQRNFEIAFKMFDLNGDGEVDMEEFEQVQSIIRSQTSMGMRHRDRPTTGNTLKSGLCSALTTYFFGADLKGKLTIKNFLEFQRKLQHDVLKLEFERHDPVDGRITERQFGGMLLAYSGVQSKKLTAMQRQLKKHFKEGKGLTFQEVENFFTFLKNINDVDTALSFYHMAGASLDKVTMQQVARTVAKVELSDHVCDVVFALFDCDGNGELSNKEFVSIMKQRLMRGLEKPKDMGFTRLMQAMWKSAQETAWDFALPKQ", "note": "[C463S]", "effect of a mutation on the interaction": "with no effect"}
